The values that follow come from PMC6450878.

For experiment [1], the target named is eGFP-talin1 (human talin1) (UniProt Q9Y490). The experiment can be described thus: OPTIC assay (microscopy of GFP-talin1 recruitment to clustered CEACAM3-integrin fusion proteins in 293T cells). The note with it: 293 T cells co-transfected with CEACAM3-integrin fusion constructs and GFP-talin1, infected for 1 h with Pacific Blue-labeled Ngo, read off a plot.
Experiment [2] deals with CEACAM3-integrin β1 fusion construct (CEA3-ITGB1) (human) (UniProt P05556). Nature of the experiment: OPTIC (Opa protein triggered integrin clustering; recruitment of a fluorescent protein to the clustered chimeric receptor, confocal microscopy); 293T cells co-transfected with CEA3-ΔCT or a CEA3-ITGB chimera and the protein of interest fused to eGFP or mCherry, seeded on poly-L-lysine; infected 1 h with Pacific Blue-stained Opa52-expressing N. gonorrhoeae at MOI 20; fixed, stained for CEACAM3; R = maximum fluorescence at the clustered chimera / mean fluorescence of the cell; R > 2 defined as positive recruitment; n = 60 cells.

Experiment [3] addresses CEACAM3-integrin β3 fusion construct (CEA3-ITGB3) (human) (UniProt P05106). Described as above.
The target in experiment [4] is CEA3-ITGB1 C.ow (CEACAM3 fused to the cytoplasmic domain of Capsaspora owczarzaki integrin β homologue ITGB1 C.ow) (human | Capsaspora owczarzaki). The description is as above.
In experiment [5] the target is CEA3-ITGB2 C.ow (CEACAM3 fused to the cytoplasmic domain of Capsaspora owczarzaki integrin β homologue ITGB2 C.ow) (human | Capsaspora owczarzaki). The description is as above.
For experiment [6], the target named is CEACAM3-integrin β2 fusion construct (CEA3-ITGB2) (human) (UniProt P05107). The description is as above.
Experiment [7] addresses CEACAM3-integrin β5 fusion construct (CEA3-ITGB5) (human) (UniProt P18084). The experiment is described as above.
Another experiment has as its target CEA3-ITGB1 Y783A (human) (UniProt P05556). The experiment is described as above.

UniProt Q9Y490, sequence (Q9Y490 whole entry, looked up, the tested form may be a part): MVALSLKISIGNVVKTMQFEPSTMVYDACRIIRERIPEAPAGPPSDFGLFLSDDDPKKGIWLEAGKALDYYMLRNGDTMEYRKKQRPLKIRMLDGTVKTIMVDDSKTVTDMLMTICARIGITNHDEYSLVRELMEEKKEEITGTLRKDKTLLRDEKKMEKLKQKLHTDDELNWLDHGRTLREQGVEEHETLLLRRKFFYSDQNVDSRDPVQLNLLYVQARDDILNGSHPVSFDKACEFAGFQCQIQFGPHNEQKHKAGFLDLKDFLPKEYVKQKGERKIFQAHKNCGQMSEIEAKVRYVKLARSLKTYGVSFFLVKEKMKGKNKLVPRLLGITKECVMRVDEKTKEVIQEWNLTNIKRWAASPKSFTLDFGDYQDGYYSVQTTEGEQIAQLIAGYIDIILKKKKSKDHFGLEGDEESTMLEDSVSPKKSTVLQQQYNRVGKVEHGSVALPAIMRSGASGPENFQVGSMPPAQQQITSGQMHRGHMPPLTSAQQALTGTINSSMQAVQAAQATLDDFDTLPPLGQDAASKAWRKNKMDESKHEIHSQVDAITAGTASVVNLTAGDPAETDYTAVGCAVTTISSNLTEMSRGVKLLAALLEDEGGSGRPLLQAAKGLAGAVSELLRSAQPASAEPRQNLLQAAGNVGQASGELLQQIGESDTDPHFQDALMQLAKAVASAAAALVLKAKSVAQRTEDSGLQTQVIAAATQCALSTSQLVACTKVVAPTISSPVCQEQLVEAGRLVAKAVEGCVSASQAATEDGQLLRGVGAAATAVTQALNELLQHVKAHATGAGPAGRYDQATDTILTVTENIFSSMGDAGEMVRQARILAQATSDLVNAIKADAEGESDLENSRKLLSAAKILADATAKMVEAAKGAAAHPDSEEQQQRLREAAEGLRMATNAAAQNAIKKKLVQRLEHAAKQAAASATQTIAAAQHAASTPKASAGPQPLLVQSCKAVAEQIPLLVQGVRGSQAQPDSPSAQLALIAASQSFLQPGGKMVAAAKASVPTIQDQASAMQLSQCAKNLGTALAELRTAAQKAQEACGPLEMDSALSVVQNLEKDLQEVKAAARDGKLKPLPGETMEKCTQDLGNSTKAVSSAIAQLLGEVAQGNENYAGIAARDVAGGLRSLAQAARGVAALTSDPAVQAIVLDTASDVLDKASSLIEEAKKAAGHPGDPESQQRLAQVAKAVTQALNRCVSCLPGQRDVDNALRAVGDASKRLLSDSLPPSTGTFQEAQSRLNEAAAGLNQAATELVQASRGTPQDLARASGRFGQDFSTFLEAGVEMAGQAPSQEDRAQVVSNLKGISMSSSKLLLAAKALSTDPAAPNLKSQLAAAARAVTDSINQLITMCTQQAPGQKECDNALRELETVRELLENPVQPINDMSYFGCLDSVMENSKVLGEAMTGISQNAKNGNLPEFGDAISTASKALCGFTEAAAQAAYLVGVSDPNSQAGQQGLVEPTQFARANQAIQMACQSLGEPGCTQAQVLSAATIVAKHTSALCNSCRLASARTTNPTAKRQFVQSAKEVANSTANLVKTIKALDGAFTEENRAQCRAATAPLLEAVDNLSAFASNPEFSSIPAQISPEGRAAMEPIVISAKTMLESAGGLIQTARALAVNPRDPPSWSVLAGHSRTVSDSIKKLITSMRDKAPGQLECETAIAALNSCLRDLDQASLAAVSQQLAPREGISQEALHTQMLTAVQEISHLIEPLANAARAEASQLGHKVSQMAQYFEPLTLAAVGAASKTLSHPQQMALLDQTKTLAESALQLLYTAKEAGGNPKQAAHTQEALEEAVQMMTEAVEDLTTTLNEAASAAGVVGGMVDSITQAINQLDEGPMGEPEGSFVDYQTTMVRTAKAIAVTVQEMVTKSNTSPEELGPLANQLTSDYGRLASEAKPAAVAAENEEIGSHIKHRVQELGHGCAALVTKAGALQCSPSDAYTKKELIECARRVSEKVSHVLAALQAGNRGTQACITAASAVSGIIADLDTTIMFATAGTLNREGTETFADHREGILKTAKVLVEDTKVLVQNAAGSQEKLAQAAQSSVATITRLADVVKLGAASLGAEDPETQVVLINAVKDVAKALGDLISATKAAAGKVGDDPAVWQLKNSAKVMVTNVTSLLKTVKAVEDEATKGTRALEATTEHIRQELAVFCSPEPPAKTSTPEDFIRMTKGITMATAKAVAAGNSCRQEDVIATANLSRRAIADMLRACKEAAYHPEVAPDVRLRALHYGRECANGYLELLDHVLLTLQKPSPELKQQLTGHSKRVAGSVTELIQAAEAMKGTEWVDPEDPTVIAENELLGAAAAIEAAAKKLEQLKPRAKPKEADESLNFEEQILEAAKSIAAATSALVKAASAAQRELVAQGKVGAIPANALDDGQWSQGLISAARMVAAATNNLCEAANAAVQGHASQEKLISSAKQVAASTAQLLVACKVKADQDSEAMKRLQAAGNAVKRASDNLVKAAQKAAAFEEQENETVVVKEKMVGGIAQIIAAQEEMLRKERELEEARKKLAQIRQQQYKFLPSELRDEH

For “CEA3-ITGB2 C.ow (CEACAM3 fused to the cytoplasmic domain of Capsaspora owczarzaki integrin β homologue ITGB2 C.ow) F1038A”, the other: talin recruitment ratio R in experiment [1] (n = 60 cells from three …, parent: est. 2.6) stood at 2.2. Moreover, the other: percentage of cells with talin recruitment R ≥ 2 in experiment [1] (parent: est. 64) is 59%.
As for “eGFP-tagged paxillin (from UniProt P49023 1-591) (natural protein)”, the recruitment ratio R (mean) turned out to be 2.92 in experiment [2] and 2.57 in experiment [3].
Take “eGFP-talin1 (human talin1) (from UniProt Q9Y490 1-2541) (natural protein)”: the recruitment ratio R in experiment [4] and in experiment [5] was greater than 2 each time. Moreover, the percent of cells with R >= 2 in experiment [2] was 85%; in experiment [6], 85%; in experiment [3], 85%; in experiment [7], 62%. For the same substance, the recruitment ratio R (mean) was 3.41 in experiment [2], 3.78 in experiment [3] and 2.1 in experiment [7].
For the substance mCherry, the recruitment ratio R (mean) in experiment [2] was found to be 1.5.
Consider “eGFP-tagged human kindlin-2 (from UniProt Q96AC1 1-680) (natural protein)”, for which the recruitment ratio R (mean) in experiment [2] was 3.9; in experiment [3], 2.4.
For the substance “mCherry-talin1 (human talin1) (from UniProt Q9Y490 1-2541) (natural protein)”, in the experiment with CEA3-ITGB1 Y783A (human), the percent of cells with R >= 2 was determined as 17% and the recruitment ratio R (mean) is 1.8. Moreover, in experiment [2], the percent of cells with R >= 2 was 85% and the recruitment ratio R (mean) stood at 2.84.
